These results are taken from EP4803537A1 (PHRONTLINE BIOPHARMA (SUZHOU) CO., LTD, dated 2026).

Test [1] deals with T1, recombinant human FcγRI protein (ACRO Biosystems, Cat. FCA-H52H1) (human, UniProt P12314 16-288, limits assumed).
T1 construct: Captured on anti-His (HIS1K) biosensors, so it carries a His tag; also called FcγRI receptor
The experiment in a line: BLI (Octet Red 96), FcγRI on HIS1K sensors. A general note: In BLI a coated tip is dipped into the sample, and binding shifts an interference pattern.

Test [2] concerns the target T2, Recombinant human EGFR protein (ACRO Biosystems, EGR-H5222) (human, UniProt P00533 25-645).
T2 construct: Bought protein
In words: ELISA, EGFR coated on the plate. In general terms: An ELISA detects its analyte on a solid surface through an enzyme-linked reagent.

T1 sequence (P12314 16-288 limits assumed): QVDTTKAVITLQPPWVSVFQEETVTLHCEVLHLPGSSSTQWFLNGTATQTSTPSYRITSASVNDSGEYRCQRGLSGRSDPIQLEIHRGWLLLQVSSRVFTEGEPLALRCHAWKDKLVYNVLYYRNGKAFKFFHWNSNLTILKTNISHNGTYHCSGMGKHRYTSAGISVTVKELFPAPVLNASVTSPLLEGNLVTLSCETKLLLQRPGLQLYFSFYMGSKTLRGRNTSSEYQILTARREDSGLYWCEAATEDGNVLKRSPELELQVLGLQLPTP

B1: Fab-Fc/Fab-Fc bispecific antibody (zalutumumab Fab x pertuzumab Fab), KIH combination (K0/H0) (bispecific antibody, human IgG1, kappa)
heavy 1: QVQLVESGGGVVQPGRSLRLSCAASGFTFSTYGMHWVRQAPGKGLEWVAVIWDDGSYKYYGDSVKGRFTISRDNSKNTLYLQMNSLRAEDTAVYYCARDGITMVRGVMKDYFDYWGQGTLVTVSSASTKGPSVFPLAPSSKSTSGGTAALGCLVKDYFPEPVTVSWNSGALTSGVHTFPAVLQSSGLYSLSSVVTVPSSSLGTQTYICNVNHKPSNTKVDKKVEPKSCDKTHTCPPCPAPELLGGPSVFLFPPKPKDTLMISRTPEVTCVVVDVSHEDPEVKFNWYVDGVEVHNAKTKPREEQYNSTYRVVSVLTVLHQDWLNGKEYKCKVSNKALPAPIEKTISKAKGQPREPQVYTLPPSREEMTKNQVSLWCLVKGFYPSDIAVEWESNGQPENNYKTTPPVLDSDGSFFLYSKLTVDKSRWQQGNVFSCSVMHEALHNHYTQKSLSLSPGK
light 1: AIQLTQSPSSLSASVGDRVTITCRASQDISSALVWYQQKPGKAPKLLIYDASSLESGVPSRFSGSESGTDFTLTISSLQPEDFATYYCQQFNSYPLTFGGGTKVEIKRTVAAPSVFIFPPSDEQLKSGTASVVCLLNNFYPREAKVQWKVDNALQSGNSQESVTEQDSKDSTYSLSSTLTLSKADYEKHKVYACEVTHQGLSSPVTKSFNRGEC
heavy 2: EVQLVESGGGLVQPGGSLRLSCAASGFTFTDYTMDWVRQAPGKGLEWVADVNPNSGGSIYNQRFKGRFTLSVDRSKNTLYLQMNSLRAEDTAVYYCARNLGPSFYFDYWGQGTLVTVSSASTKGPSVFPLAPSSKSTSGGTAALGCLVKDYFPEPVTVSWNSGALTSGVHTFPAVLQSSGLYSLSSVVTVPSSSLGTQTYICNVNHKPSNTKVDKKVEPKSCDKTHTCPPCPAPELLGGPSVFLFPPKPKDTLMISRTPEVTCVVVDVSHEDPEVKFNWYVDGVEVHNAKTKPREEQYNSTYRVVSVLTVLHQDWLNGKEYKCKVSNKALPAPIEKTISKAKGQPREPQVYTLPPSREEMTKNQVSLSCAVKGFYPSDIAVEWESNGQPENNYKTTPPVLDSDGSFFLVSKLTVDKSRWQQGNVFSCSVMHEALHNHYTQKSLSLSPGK
light 2: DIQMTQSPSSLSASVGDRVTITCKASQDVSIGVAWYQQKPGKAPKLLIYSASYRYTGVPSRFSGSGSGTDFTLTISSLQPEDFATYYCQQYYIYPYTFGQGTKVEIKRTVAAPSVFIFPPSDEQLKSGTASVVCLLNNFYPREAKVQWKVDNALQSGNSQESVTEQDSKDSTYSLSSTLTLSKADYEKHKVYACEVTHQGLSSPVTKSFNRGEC
notes: Human IgG1 Fc (hinge, CH2, CH3); the exact junction between VH-CH1 and Fc (EU 221-447) is not spelled out; also called KIH control
For the molecule B1, the binding result in test [1] and in test [2] was “binds” throughout.

B2: Fab-Fc/Fab-Fc bispecific antibody (zalutumumab Fab x pertuzumab Fab), M1 mutant combination (K2/H2) (bispecific antibody, human IgG1, kappa)
heavy 1: not shown
light 1: not shown
heavy 2: EVQLVESGGGLVQPGGSLRLSCAASGFTFTDYTMDWVRQAPGKGLEWVADVNPNSGGSIYNQRFKGRFTLSVDRSKNTLYLQMNSLRAEDTAVYYCARNLGPSFYFDYWGQGTLVTVSSASTKGPSVFPLAPSSKSTSGGTAALGCLVKDYFPEPVTVSWNSGALTSGVHTFPAVLQSSGLYSLSSVVTVPSSSLGTQTYICNVNHKPSNTKVDKKVEPKSCDKTHTCPPCPAPELLGGPSVFLFPPKPKDTLMISRTPEVTCVVVDVSHEDPEVKFNWYVDGVEVHNAKTKPREEQYNSTYRVVSVLTVLHQDWLNGKEYKCKVSNKALPAPIEKTISKAKGQPREPQVYTLPPSREEMTKNQVSLSCAVKGFYPSDIAVEWESNGQPENNYKTTPPVLRSDGSFFLVSKLTVDKSRWQQGNVFSCSVMHEALHNHYTQKSLSLSPGK
light 2: not shown
notes: Human IgG1 Fc; Junction between VH-CH1 and Fc not spelled out; no linker named for this format
For the molecule B2, the binding result in test [1] and in test [2] was “binds” each time.

B3: Fab-Fc/Fab-Fc bispecific antibody (zalutumumab Fab x pertuzumab Fab), M2 mutant combination (K0/H8) (bispecific antibody, human IgG1, kappa)
heavy 1: not shown
light 1: not shown
heavy 2: EVQLVESGGGLVQPGGSLRLSCAASGFTFTDYTMDWVRQAPGKGLEWVADVNPNSGGSIYNQRFKGRFTLSVDRSKNTLYLQMNSLRAEDTAVYYCARNLGPSFYFDYWGQGTLVTVSSASTKGPSVFPLAPSSKSTSGGTAALGCLVKDYFPEPVTVSWNSGALTSGVHTFPAVLQSSGLYSLSSVVTVPSSSLGTQTYICNVNHKPSNTKVDKKVEPKSCDKTHTCPPCPAPELLGGPSVFLFPPKPKDTLMISRTPEVTCVVVDVSHEDPEVKFNWYVDGVEVHNAKTKPREEQYNSTYRVVSVLTVLHQDWLNGKEYKCKVSNKALPAPIEKTISKAKGQPREPQVYTYPPSREEMTKNQVSLSCAVKGFYPSDIAVEWESNGQPENNYKTTPPVLDSDGSFFLVSKLTVDKSRWQQGNVFSCSVMHEALHNHYTQKSLSLSPGK
light 2: not shown
notes: as for B2
On to B3, for which the binding result in test [1] and in test [2] was “binds” throughout.

B4: Fab-Fc/Fab-Fc bispecific antibody (zalutumumab Fab x pertuzumab Fab), M3 mutant combination (K2/H7) (bispecific antibody, human IgG1, kappa)
heavy 1: not shown
light 1: not shown
heavy 2: EVQLVESGGGLVQPGGSLRLSCAASGFTFTDYTMDWVRQAPGKGLEWVADVNPNSGGSIYNQRFKGRFTLSVDRSKNTLYLQMNSLRAEDTAVYYCARNLGPSFYFDYWGQGTLVTVSSASTKGPSVFPLAPSSKSTSGGTAALGCLVKDYFPEPVTVSWNSGALTSGVHTFPAVLQSSGLYSLSSVVTVPSSSLGTQTYICNVNHKPSNTKVDKKVEPKSCDKTHTCPPCPAPELLGGPSVFLFPPKPKDTLMISRTPEVTCVVVDVSHEDPEVKFNWYVDGVEVHNAKTKPREEQYNSTYRVVSVLTVLHQDWLNGKEYKCKVSNKALPAPIEKTISKAKGQPREPQVYTYPPSREEMTKNQVSLSCAVKGFYPSDIAVEWESNGQPENNYKTTPPVLRSDGSFFLVSKLTVDKSRWQQGNVFSCSVMHEALHNHYTQKSLSLSPGK
light 2: not shown
notes: as for B2
Turning to B4, the binding result in test [1] and in test [2] was “binds” in each case.
